Measurements reported in the nanobody polyreactivity screen of Harvey et al. (2022).

test: yeast display, Sf9 membrane polyspecificity reagent, FACS + sequencing; frameworks hold sequencing errors
Outline: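 Sorting gates, low and high (top ~1%), were placed on anti-HA fluorescence to track expression and on streptavidin fluorescence to track reagent binding. A clone's polyreactivity label is taken from the gate it came out of. The reagent was 10% biotinylated, detergent-solubilized Sf9 membrane, applied for 1 hour at 4 °C to galactose-induced yeast display cells.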

| Sequence | polyreactivity (PSR sort gate) |
| --- | --- |
| QVQLVESGGGLVQAGGSLRLSCAASGRIFSKNAMGWYRQAPGKERELVAAIDSSGDSTNYADSVKGRFTISRDNAKNTVYLQMNSLKTEDTAVYYCAATLGYRWSGFEYWGLGTQVTVSS | high polyreactivity |
| QVQLVESGGGLVQAGGSLRLSCAASGRIFSKYAMGWYRQAPGKERELVASIRWRGDRTYYADSVKGRFTISRDNAKNTVYLQMNSLKTEDTAVYYCAADEPGYGVGYWTYPVVPYDYWGQGTQVTVSS | low polyreactivity |
| QVQLVESGGGLVQAGGSLRLSCAASGRIFSLNAMGWYRQAPGKERELVAGIRKSGGSTYYADSVKGRFTISRDNAKNTVYLQMNSLKPEDTAVYYCAAQPALTYRFYYWGQGTQVTVSS | high polyreactivity |
| QVQLVESGGGLVQAGGSLRLSCAASGRIFSLYAMGWYRPAPGKEMELVAAITGIGGSTYYADSVKGRFTISRDNAKNTVYLQMNSLKPDDTAVYYCAARYPATYPSMGYWGQGTQLTVSS | low polyreactivity |
| QVQLVESGGGLVQAGGSLRLSCAASGRIFSLYAMGWYRPAPGKERELVAAITWRGGGTYYADSVKGRITISRDNAKNTVFLQMNSLKPEDTAVYYCAAEVKHIFYGYWGQGTQVTVSS | high polyreactivity |
| QVQLVESGGGLVQAGGSLRLSCAASGRIFSLYAMGWYRQAPGKDRELVAAISRGGSTYYADSVKGRFTISRDNAKNTVYLQMNSLKPEDTAVSYCARRYWYPDAFYRYDYWGQGTQVTVSS | low polyreactivity |
| QVQLVESGGGLVQAGGSLRLSCAASGRIFSNNAMGWYRQAPGKERELVAAITNSGGSTYYADSVKGRFTISRDNAKNTVYLQMNSLKPEDTAVYYCNARSKVAYYRHYYWGQGTQVTVSS | low polyreactivity |
| QVQLVESGGGLVQAGGSLRLSCAASGRIFSPNAMGWSRQAPGKERELVAAITRGGSTNYADSVKGRFTISRDNAKYTVYLQMNSLKPEDTAVYFCAALLAKTISGRGYNSWGQGTQVTVSS | low polyreactivity |
| QVQLVESGGGLVQAGGSLRLSCAASGRIFSPYAMGWYRQAPGKERELVARISWRGSRTYYADSVKGRFTISRDNAKNTVYLQMNSLKPEDTAVYYCNAVFYRKPLRRDYWVQGTQVTVSS | high polyreactivity |
| QVQLVESGGGLVQAGGSLRLSCAASGRIFSQNTMGWYRQAPGKERELVATITTSDGSTSYADSVKGRFTISRDNAKNTVYLQMNSLKPEDTAVYYCNARLSKYEGYWVWQYDYWGQGTQVTVSS | low polyreactivity |
| QVQLVESGGGLVQAGGSLRLSCAASGRIFSRNAMGWYRQAPGKDRELVAAISRSGTSTYYADSGKGRFTISRDNAKNTVYLQMNSLKPEDTAVYYCAADSWSRSVNYYYWGQGTQVTVSS | low polyreactivity |
| QVQLVESGGGLVQAGGSLRLSCAASGRIFSRNAMGWYRQAPGKERELVAAISRSGTRTNYADSVKGRFTISRDNAKYTVYLQMNSLKPEDTAVYYCATAAFIVGSSRTYDYWGQGTQVTVSS | high polyreactivity |
| QVQLVESGGGLVQAGGSLRLSCAASGRIFSRNAMGWYRQAPRKEREFVAAISRRGTSTYYADSVKGRFTISRDNAKNTVYLQMHSLKPEDTAVYYCNAGGSPWYKPVYYRALYDYWGQGTQVTVSS | high polyreactivity |
| QVQLVESGGGLVQAGGSLRLSCAASGRIFSRNARGWYRQATGKERELVAAITARSGTTFYADSVKGRFTISRDNAKNTVYLQMNSLKPEDTAVYYCAADGSPSLLDYWGQGTQVTVSS | high polyreactivity |
| QVQLVESGGGLVQAGGSLRLSCAASGRIFSRYAMGWYRQAPGKERELVAAINWSGGSTYYADSVKGRFTISRDNAKNTVYLQMNSLKPEDTAVYYCAADIYPLAIGAFRDDYWGQGTQVTVSS | low polyreactivity |
| QVQLVESGGGLVQAGGSLRLSCAASGRIFSRYAMGWYRQAPGKERELVAAITSNGGSTYYADSVKGRFTISRDNAKNTVYLQMNSLKPEDTAVYYCAAKSYWLHYDYWGQGTQVTVSS | high polyreactivity |
| QVQLVESGGGLVQAGGSLRLSCAASGRIFSRYAMGWYRQAPGKERELVASIRSGGSTYYADSVKGRFTIARDNAKNTVYVQMNSLKPEDTAVYYCAKGTFDLHYRKRYNYWGQGTQVTVSS | low polyreactivity |
| QVQLVESGGGLVQAGGSLRLSCAASGRIFSRYTMGCYRQAPGKERELVAAISSRGGSTYYADSVKGRFTISRDNAKNTVYLQMNSLKPEDTAVYYCNTPSYSGSSPYDHWGQGTQVTVSS | high polyreactivity |
| QVQLVESGGGLVQAGGSLRLSCAASGRIFSSYAMGWNRQAPGKERELVAAITDGDSTNYADSVKGRFTIARDNAKNTDYFQMNSLKPEDTAVYYCAVDILWYYPPGNYYYSSYDYWGQGTQVTVSS | low polyreactivity |
| QVQLVESGGGLVQAGGSLRLSCAASGRIFSTNAMGWYRQAPGKEREFVAAISWIGGSTYYADSVKGRFTISRDNAKNTVYLQMNSLKPEDTAVYYCAAGVYDDYPWSYDIFNLYDYWGQGTQVTVSS | low polyreactivity |
| QVQLVESGGGLVQAGGSLRLSCAASGRIFSVNGMGWYRQAPGKERELVAAITYNGGRTYYADSVKGRITISRDNAKNTVYLQMNSLKPEDTAVYYCAVESVRHPLDWYYYWGQGTQVTVSS | low polyreactivity |
| QVQLVESGGGLVQAGGSLRLSCAASGRIFSVYAMGWYRQAPGKEREFVAAITKGGVGTYYADSVKGRFTISRDNAKNTVYLQMNSLKPEDTAVYYCAARHYYGADRYYSWGQGTLVTVSS | high polyreactivity |

| Sequence | polyreactivity (PSR sort gate) |
| --- | --- |
| QVQLVESGGGLVQAGGSLRLSCAASGRIFSVYAMGWYRQAPGKEREFVASISWRGGRTYYADSVKGRFTISRDNAKNTVYLQMNSLKPEDTAVYYCNAPQRYWPPYGYWGQGTQVTVSS | high polyreactivity |
| QVQLVESGGGLVQAGGSLRLSCAASGRIFSVYAMGWYRQAPGKERELVAAITWTGGRTYYADSVKGRFTISRDNAKNTVYLQMNSLKPEDTAVYYCNKDWGRYRYDYWGQGTQVTVSS | high polyreactivity |
| QVQLVESGGGLVQAGGSLRLSCAASGRIFSVYGMGWYRQAPGKDRELVAAISSSAGSTNYADSVKGRFTISRDNAKNTVYLQMNSLKPEDTAVYYCAAYYRRVVYYPTAYYIRKYDYWGQGTQVTVSS | high polyreactivity |
| QVQLVESGGGLVQAGGSLRLSCAASGRIFSVYTMGWYRQAPGKERELVAGISRGGSTDYADSVKGRFTISRDNAKNTVYLQMNSLKPEDTAVYYCAATYTYRWYQFNFWGQGTQVTVSS | high polyreactivity |
| QVQLVESGGGLVQAGGSLRLSCAASGRIFSWYTMGWYRQAPGKERELVAGITWSGGSTYYADSVKGRFTISRDNAKNTVYLQMNSLKPEDTAVYYCAAGGVSFGYYKYYYWGQGTQVTVSS | high polyreactivity |
| QVQLVESGGGLVQAGGSLRLSCAASGRIFSWYTMGWYRQAPGKERELVAIISRSGGSTYYADSVKGRFTISRDNAKNTVYLQMNSLKPEDTAVYYCNARWSFSYTVWVDSYWGLDDYWGQGTQVTVSS | high polyreactivity |
| QVQLVESGGGLVQAGGSLRLSCAASGRIFSYAMGWYRQAPGKERELVAGSTYYADSVKGRFTISRDNAKNTVYLQMNSLKPEDTAVYYCNVGGYGLRGDYWGQGTQVTVSS | low polyreactivity |
| QVQLVESGGGLVQAGGSLRLSCAASGRIFSYNAMGLYRPAPVKERELFAAITFSGGGTYYADSVKGRFTISRDNAKNTVYLQMKSLKPEDTAVYYCNKVSYGYSTYGYWGQGTQVTVSS | low polyreactivity |
| QVQLVESGGGLVQAGGSLRLSCAASGRIFSYNAMGWYRQAPGKEREFVAAIDWRAGSTYYADSVKGRFTISRDNAKKTVYLQMNSLKPEDTAVYYCAVEFGAYPFLYYYWGQGTQVTVSS | high polyreactivity |
| QVQLVESGGGLVQAGGSLRLSCAASGRIFSYNAMGWYRQAPGKERELVAAISYGGGRTYYADSVKGRFTISRDNAKNTVYLQMNSLKPEDTAVYYCAASQYRSPYPYRDYYTPDYDYWGQGTQVTVSS | high polyreactivity |
| QVQLVESGGGLVQAGGSLRLSCAASGRIFSYNAMGWYRQAPGKERELVAAISYGGGRTYYADSVKGRFTISRDNAKNTVYLQMNSLKPEDTAVYYCAATSSLGDFRYDYWRQGTQVTVSS | high polyreactivity |
| QVQLVESGGGLVQAGGSLRLSCAASGRIFSYYAMGWYRQAPGKERELVAAINWSGSSTYYADSVKGRFTISRDNAKNTVYLQMNSLKPEDTAVYYCAAGVPKNGQAGYDYWGQGTQVTVSS | high polyreactivity |
| QVQLVESGGGLVQAGGSLRLSCAASGRIFSYYAMGWYRQAPGKERELVAAISWNGGSTYYADSVKGRFTISRDNAKNTVYLQMKSLKPEDTAVYYCAAESYFNNWRNRYDYCGQGTQVTVSS | high polyreactivity |
| QVQLVESGGGLVQAGGSLRLSCAASGRIFSYYAMGWYRQAPGKERELVAAISWNGGSTYYADSVKGRFTISRDNAKNTVYLQMNSLKPEDTAVYYCNRLGYRTGYERDYWGQGTQVTVSS | high polyreactivity |
| QVQLVESGGGLVQAGGSLRLSCAASGRIFSYYAMGWYRQAPGKERELVAAISYSRTYYADSVKGRFTISRDNAKNTVLLQMNSLKPEDTAVYYCNVKSKYRYGYWGQGTQVTVSS | high polyreactivity |
| QVQLVESGGGLVQAGGSLRLSCAASGRIFSYYAMGWYRQAPGKERELVAAITWSGGRTYYADSVKGRFTISRDNAKNTVYLQMNSLKPEDTAVYYCAAQGSRWWGFDYWGQGTQVTVSS | high polyreactivity |
| QVQLVESGGGLVQAGGSLRLSCAASGRIFSYYAMGWYRQAPGKERELVARITSRGASTYYADSVKGRFTISRDNAKNTVYLQMNSLKPEDTAVYYCATDRYRIYPDYDYWGQGTQVTVSS | high polyreactivity |
| QVQLVESGGGLVQAGGSLRLSCAASGRIFSYYAMGWYRQAPGKERELVATINSGGSTNYADSVKRRFTISRDNAKNTVYLQMNSLKPEDTAVYYCAASPVWWSDYWGQGTQVTVSS | low polyreactivity |
| QVQLVESGGGLVQAGGSLRLSCAASGRIFSYYAMLWYRQAPGKERELVATINSGGSTNYADSVKGRFTISRDNAKNTVYLQMNSLKPEDTAVYYCAASPVWWYDNWGQGTQVTVSS | low polyreactivity |
| QVQLVESGGGLVQAGGSLRLSCAASGRIFSYYDMGWYRQAPGKERELVARISYSGDSTYYADSVKGRFTISRDNAKNTVYLQMNSLKPEDTAVYYCAADSITSKNQGLDYDYWGQGTQVTVSS | low polyreactivity |
| QVQLVESGGGLVQAGGSLRLSCAASGRIFSYYDMGWYRQAPGKERELVAVISSRGGSTFYADSVKGRFTISRDNAKNTVYLLMNSLKAEDTAVYDCASRSLYVGYDYWGQCTQVTVSS | high polyreactivity |
